Assay [1] concerns the target T1, YU2 gp140 foldon trimer (wild type) (HIV-1 group M subtype B isolate YU-2, UniProt P35961, stabilised).
T1 construct: also called uncleaved YU2 gp140 foldon trimer; YU2 gp140 WT; source: 293-6E, transiently transfected, purified (Ni-NTA)
The experiment in a line: ELISA; YU2 gp120/gp140 proteins coated on the plate at 2 μg/ml; IgG in a 1:3 dilution series from 4 or 10 μg/ml, 1 h at room temperature or 37°C, in 1% BSA in PBS; detected with anti-human IgG. Conditions: both partners purified.

Assay [2] deals with T2, YU2 gp120 monomer (wild type) (HIV-1 group M subtype B isolate YU-2, UniProt P35961).
T2 construct: also called monomeric YU2 gp120; YU2 gp120 WT; source: 293-6E, transiently transfected, purified (Ni-NTA)
Described as above. The note with it: both partners purified.

B1: Monoclonal anti-HIV-1 Env SF12 (IgG) (antibody, V domains shown)
VH: QVQLQESGPGLVKPSETLSVTCRVSGGSLDLYYWSWIRQPPGKGLQWIGFVYFDGSYGDYDPSLRSRVTISADMSKNQISLRLKSVTPADTAVYYCARLGPGGIFDRWTGHYGDKWLDPWGQGTLVTVSS
VL: QIDLTQSPRTLSLSAGERATLLCRASQSVSNVALAWYQHKPGQAPRLLLHEASTRATGIPDRFIGSGSGRDFTLTITSLEPEDFAVYYCQLSGRRLGQGTKVEIK
With B1, the binding result in assay [1] and in assay [2] was “binds” in each case.

B2: Monoclonal anti-HIV-1 Env SF5 (IgG) (antibody, V domains shown)
VH: QVQLQESGPGLVKPSETLSVTCRVSGGSLDRYYWSWIRQPPGEGLQWIGHVYFDGSYGDYDPSLRSRVTITADMSKYQIILRLRSVTPADTAVYYCARLGPGGIFDRWTGHYGDKWLDPWGQGTLVTVSS
VL: QIVLTQSPRTLSLSAGERATLLCRASQSVSNVALAWYQHKPGQAPRLLLHEASIRAAGIPDRFVGSGSGRDFTLTITSLHPEDFAVYYCQLSGRRLGPGTKVEIK
For B2, the binding result in assay [1] and in assay [2] was “binds” throughout.

(Values after PMC6591006, “Broad and Potent Neutralizing Antibodies Recognize the Silent Face of the HIV Envelope” (Immunity, 2019).)
